One assay addresses Monkey N4. The assay can be described thus: flow cytometry, transfected CHO cells. On the technique in general: Flow cytometry measures light scatter and fluorescence of single cells or particles in a stream.
Assay [1] concerns the target Rat N4. Description: flow cytometry, transfected CHO cells; ambiguous fit.
The target in assay [2] is Mouse N4. Described as above.
Assay [3] addresses T1, human Nectin-4 on cells (CHO cells transfected with human Nectin-4 cDNA); SUM190 tumor cells; normal … (human, UniProt Q96NY8 32-510).
T1 chain: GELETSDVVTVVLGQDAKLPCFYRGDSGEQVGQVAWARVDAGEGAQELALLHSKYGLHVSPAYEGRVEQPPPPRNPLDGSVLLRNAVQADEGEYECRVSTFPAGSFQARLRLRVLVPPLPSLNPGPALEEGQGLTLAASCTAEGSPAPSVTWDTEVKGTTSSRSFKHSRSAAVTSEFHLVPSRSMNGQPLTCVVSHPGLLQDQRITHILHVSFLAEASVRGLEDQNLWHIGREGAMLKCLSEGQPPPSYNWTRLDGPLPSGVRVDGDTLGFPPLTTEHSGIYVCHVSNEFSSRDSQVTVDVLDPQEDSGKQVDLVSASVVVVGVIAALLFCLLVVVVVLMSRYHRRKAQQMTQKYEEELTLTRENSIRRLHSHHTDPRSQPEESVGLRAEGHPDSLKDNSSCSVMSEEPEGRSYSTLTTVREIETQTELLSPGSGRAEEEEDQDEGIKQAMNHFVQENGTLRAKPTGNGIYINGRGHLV
Description: flow cytometry, transfected CHO cells.

Assay [4] concerns the target Rat N4. The assay can be described thus: flow cytometry, transfected CHO cells.
For assay [5], the target named is Mouse N4. The assay can be described thus: flow cytometry, transfected CHO cells.
For assay [6], the target named is T1, human Nectin-4 on cells (CHO cells …). The assay can be described thus: flow.

B1: Ch-15A7.5 (antibody, V domains shown)
VH: EVKLVESGGGLVQPGGSRKLSCAASGFTFSNYGMAWVRQAPGKGPEWVAFISNLAYGINYADTVTGRFTISRENAKNTLYLEMRSLRSEDTAMYYCARGARATGWFAYWGQGTLVTVSA
VL: DIVMTQSQKFMSTSIGDRVSVTCKASQNVDTHVAWYQEKPGQSPKALIYSASYRYSGVPDRFTGSGSGTDFTLTISNVQSEDLADYFCQQYNSYPLTFGGGTKLEIK
With B1, the EC50 (in general, the midpoint of the concentration-response curve) with Monkey N4 was 1.22 nM; with Rat N4 [1], around 5.16 nM; with Mouse N4 [2] it was around 31.2 nM.

B2: Ch-15A7.5 (chimeric anti-Nectin-4 monoclonal antibody 15A7.5) (antibody, V domains shown)
VH: EVKLVESGGGLVQPGGSRKLSCAASGFTFSNYGMAWVRQAPGKGPEWVAFISNLAYGINYADTVTGRFTISRENAKNTLYLEMRSLRSEDTAMYYCARGARATGWFAYWGQGTLVTVSA
VL: DIVMTQSQKFMSTSIGDRVSVTCKASQNVDTHVAWYQEKPGQSPKALIYSASYRYSGVPDRFTGSGSGTDFTLTISNVQSEDLADYFCQQYNSYPLTFGGGTKLEIK
In turn, B2 gave an EC50 in assay [3] of 0.692 nM.

B3: Ch-3A1.4 (antibody, V domains shown)
VH: DVQLQESGPSLVKPSQTLSLTCSVTGDSITSGYWNWIRKFPGNKLEYMGYISNSGITYYNPSLKSRISITRDTSKNQYFLQLNSVTAEDTATYYCTRFGSTMILYYTMDYWGQGTSVTVSS
VL: DIVMTQSPVTLSVTPGDRVSLSCRASQSISDYLHWYQQKSQESPRLLIKYASKSISGIPSRFSGSGSGSNFTLSINSVEPEDVGVYYCQNGHSFPLTFGAGTKLELK
For B3, a half-maximal response in assay [3] (EC50) required 2.83 nM.

B4: HA22 (antibody, V domains shown)
VH: EVQLVESGGGLVQPGGSLRLSCAASGFTFSSYNMNWVRQAPGKGLEWVSYISSSSSTIYYADSVKGRFTISRDNAKNSLSLQMNSLRDEDTAVYYCARAYYYGMDVWGQGTTVTVSS
VL: DIQMTQSPSSVSASVGDRVTITCRASQGISGWLAWYQQKPGKAPKFLIYAASTLQSGVPSRFSGSGSGTDFTLTISSLQPEDFATYYCQQANSFPPTFGGGTKVEIK
For the molecule B4, the EC50 was found to be 0.097 nM with Rat N4 [4], 41.1 nM with Mouse N4 [5] and 0.0678 nM with Monkey N4.

B5: HA22 (Enfortumab), human monoclonal anti-Nectin-4 antibody (antibody, V domains shown)
VH: EVQLVESGGGLVQPGGSLRLSCAASGFTFSSYNMNWVRQAPGKGLEWVSYISSSSSTIYYADSVKGRFTISRDNAKNSLSLQMNSLRDEDTAVYYCARAYYYGMDVWGQGTTVTVSS
VL: DIQMTQSPSSVSASVGDRVTITCRASQGISGWLAWYQQKPGKAPKFLIYAASTLQSGVPSRFSGSGSGTDFTLTISSLQPEDFATYYCQQANSFPPTFGGGTKVEIK
Consider B5, for which the midpoint of the response in assay [6], the EC50, lay at 0.346 nM.

B6: Ch-5A12.2 (antibody, V domains shown)
VH: QIQLQQSGAELVKPGASVTLSCKTSGFTFNSMYISWLKQKPGQSLEWIAWIYAGTGGTRFNQKFTGKVQLTVDTSSSTAYMQFSSLTTDDSAIYYCAIRSGFVPMDYWGQGTSVTVSS
VL: SIVMTQTPKFLLVSAGDRVTITCKASQSVSNDVAWYQQKPGQSPKLLIYYASNRYTGVPDRFTGSGYGTDFTFTISTVQAEDLAVYFCQQDYSSPWTFGGGTKLEIK
With B6, the EC50 with Rat N4 [4] was 0.478 nM; with Monkey N4, 0.134 nM; with Mouse N4 [2] it was around 205 nM.

B7: Ch-5A12.2 (chimeric anti-Nectin-4 monoclonal antibody 5A12.2) (antibody, V domains shown)
VH: QIQLQQSGAELVKPGASVTLSCKTSGFTFNSMYISWLKQKPGQSLEWIAWIYAGTGGTRFNQKFTGKVQLTVDTSSSTAYMQFSSLTTDDSAIYYCAIRSGFVPMDYWGQGTSVTVSS
VL: SIVMTQTPKFLLVSAGDRVTITCKASQSVSNDVAWYQQKPGQSPKLLIYYASNRYTGVPDRFTGSGYGTDFTFTISTVQAEDLAVYFCQQDYSSPWTFGGGTKLEIK
As for B7, the EC50 in assay [3] worked out at 0.37 nM.

(Values after patent US20240181075A1 (published 2024).)
